Measured values from US20260240998A1 (JICHI MEDICAL UNIVERSITY, published 2026).

Target: T1, B-cell maturation antigen (BCMA) (human, UniProt Q02223 1-184)
T1 sequence (looked up): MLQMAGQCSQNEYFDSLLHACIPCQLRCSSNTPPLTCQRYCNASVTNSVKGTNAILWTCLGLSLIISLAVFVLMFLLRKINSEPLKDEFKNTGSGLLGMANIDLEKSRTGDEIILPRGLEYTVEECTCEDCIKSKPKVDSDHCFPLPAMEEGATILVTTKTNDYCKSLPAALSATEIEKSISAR
Assay: cell-based or functional assay

B1: BCMA-CAR (L20H), LH construct derived from anti-BCMA antibody 1 with a 20 amino acid linker (other)
chain: DIVLTQSPASLAVSLGQRATISCRASKSVSTSGYSYMHWYQQKPGQPPRLLIYLASNLESGVPARFSGSGSGTDFTLNIHPVEEEDAATYYCQHSRELPFTFGSGTKLEIKGGGGSGGGGSGGGGSGGGGSEVQLQQSGPELVKPGASVKMSCKASGYTFTNYIIHWVKQKPGQGLEWIGYIIPYNDGSKYNEKFKGKATLTSDKSSSTAYMELSSLTSEDSAVYYCARLTFSYDSYAMDYWGQGTSVTVSSATGAAAIEVMYPPPYLDNEKSNGTIIHVKGKHLCPSPLFPGPSKPFWVLVVVGGVLACYSLLVTVAFIIFWVRSKRSRLLHSDYMNMTPRRPGPTRKHYQPYAPPRDFAAYRSRVKFSRSADAPAYQQGQNQLYNELNLGRREEYDVLDKRRGRDPEMGGKPRRKNPQEGLYNELQKDKMAEAYSEIGMKGERRRGKGHDGLYQGLSTATKDTYDALHMQALPPR
  luminescence intensity ratio of the U266 co-culture group to the control group (transduced cells only): 62.8 times
